Read-outs that look alike come from different tables or passages of the source.

For assay [1], the target named is microtubules (taxol-stabilized; polymer of alpha- and beta-tubulin).
In assay [2] the target is sea urchin sperm flagellar axonemes (sea urchin). Kind of assay: single-molecule fluorescence motility assay.
For assay [3] the target is unchanged. The assay can be described thus: single-molecule fluorescence motility assay. The source holds these as a separate data set.
Assay [4] has the same target. The assay can be described thus: single-molecule fluorescence motility assay. The source holds these as a separate data set.
Assay [5] has the same target. Kind of assay: optical trapping bead assay.

“Cys330/Cys4 Cys-light K560-GFP (neck linker mutant Ser330Cys/Leu4Cys) (from UniProt P33176 1-560) (domain or fragment)”: in assay [1], the Km(MT) of the microtubule-stimulated ATPase, NEM-modified control was 0.45 μM tubulin; the Km(MT) of the microtubule-stimulated ATPase, with 200 μM DTNB is 2.35 μM tubulin; the Km(MT) of the microtubule-stimulated ATPase, without DTNB worked out at 0.57 μM tubulin.
As to “Cys334/Cys222 Cys-light K560-GFP (neck linker mutant Glu334Cys/Lys222Cys) (from UniProt P33176 1-560) (domain or fragment)”, in assay [1], the Km(MT) of the microtubule-stimulated ATPase, NEM-modified control was 1.51 μM tubulin; the Km(MT) of the microtubule-stimulated ATPase, with 200 μM DTNB was determined as 2.36 μM tubulin; the Km(MT) of the microtubule-stimulated ATPase, without DTNB came out at 0.62 μM tubulin.
For the substance “Cys337 Cys-light K560-GFP (neck coiled-coil mutant Ala337Cys) (from UniProt P33176 1-560) (domain or fragment)”, the association time in assay [2] was found to be 3.7 s.
Regarding “Cys337/Cys344 Cys-light K560-GFP (neck coiled-coil double mutant Ala337Cys/Tyr344Cys) (from UniProt P33176 1-560) (domain or fragment)”, the association time in assay [3] came out at 2.5 s; in assay [4], 3.8 s.
Consider “Cys344 Cys-light K560-GFP (neck coiled-coil mutant Tyr344Cys) (from UniProt P33176 1-560) (domain or fragment)”, for which the fold change of the dissociation rate under load (with DTNB against without DTNB) in assay [5] is 1.2 fold. For the same substance, the frequency of movement/binding in assay [2] and in assay [4] was 2 /min/μm/nM in each case.

Values taken from paper PMC2174365.
